According to IntAct's records for PubMed 25910212:

B1: U4/U6 small nuclear ribonucleoprotein Prp31 (Homo sapiens), Q8WWY3 (parent)
chain: MSLADELLADLEEAAEEEEGGSYGEEEEEPAIEDVQEETQLDLSGDSVKTIAKLWDSKMFAEIMMKIEEYISKQAKASEVMGPVEAAPEYRVIVDANNLTVEIENELNIIHKFIRDKYSKRFPELESLVPNALDYIRTVKELGNSLDKCKNNENLQQILTNATIMVVSVTASTTQGQQLSEEELERLEEACDMALELNASKHRIYEYVESRMSFIAPNLSIIIGASTAAKIMGVAGGLTNLSKMPACNIMLLGAQRKTLSGFSSTSVLPHTGYIYHSDIVQSLPPDLRRKAARLVAAKCTLAARVDSFHESTEGKVGYELKDEIERKFDKWQEPPPVKQVKPLPAPLDGQRKKRGGRRYRKMKERLGLTEIRKQANRMSFGEIEEDAYQEDLGFSLGHLGKSGSGRVRQTQVNEATKARISKTLQRTLQKQSVVYGGKSTIRDRSSGTASSVAFTPLQGLEIVNPQAAEKKVAEANQKYFSSMAEFLKVKGEKSGLMST
partner: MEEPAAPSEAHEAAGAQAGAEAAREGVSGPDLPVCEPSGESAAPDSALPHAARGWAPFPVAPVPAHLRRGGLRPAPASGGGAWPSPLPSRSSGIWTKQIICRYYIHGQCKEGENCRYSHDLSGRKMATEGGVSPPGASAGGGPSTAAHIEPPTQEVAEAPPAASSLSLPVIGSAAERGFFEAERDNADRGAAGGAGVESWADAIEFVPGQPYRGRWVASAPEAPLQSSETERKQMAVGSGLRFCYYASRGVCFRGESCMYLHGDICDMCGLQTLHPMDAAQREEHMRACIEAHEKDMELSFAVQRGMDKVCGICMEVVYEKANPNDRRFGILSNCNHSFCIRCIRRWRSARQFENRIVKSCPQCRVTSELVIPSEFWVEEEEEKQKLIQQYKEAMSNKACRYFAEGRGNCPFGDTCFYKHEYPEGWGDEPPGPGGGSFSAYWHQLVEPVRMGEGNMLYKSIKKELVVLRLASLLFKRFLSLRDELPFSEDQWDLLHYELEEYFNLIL
B2: Retinoic acid receptor RXR-gamma (Homo sapiens), P48443 (parent)
chain: MYGNYSHFMKFPAGYGGSPGHTGSTSMSPSAALSTGKPMDSHPSYTDTPVSAPRTLSAVGTPLNALGSPYRVITSAMGPPSGALAAPPGINLVAPPSSQLNVVNSVSSSEDIKPLPGLPGIGNMNYPSTSPGSLVKHICAICGDRSSGKHYGVYSCEGCKGFFKRTIRKDLIYTCRDNKDCLIDKRQRNRCQYCRYQKCLVMGMKREAVQEERQRSRERAESEAECATSGHEDMPVERILEAELAVEPKTESYGDMNMENSTNDPVTNICHAADKQLFTLVEWAKRIPHFSDLTLEDQVILLRAGWNELLIASFSHRSVSVQDGILLATGLHVHRSSAHSAGVGSIFDRVLTELVSKMKDMQMDKSELGCLRAIVLFNPDAKGLSNPSEVETLREKVYATLEAYTKQKYPEQPGRFAKLLLRLPALRSIGLKCLEHLFFFKLIGDTPIDTFLMEMLETPLQIT
partner: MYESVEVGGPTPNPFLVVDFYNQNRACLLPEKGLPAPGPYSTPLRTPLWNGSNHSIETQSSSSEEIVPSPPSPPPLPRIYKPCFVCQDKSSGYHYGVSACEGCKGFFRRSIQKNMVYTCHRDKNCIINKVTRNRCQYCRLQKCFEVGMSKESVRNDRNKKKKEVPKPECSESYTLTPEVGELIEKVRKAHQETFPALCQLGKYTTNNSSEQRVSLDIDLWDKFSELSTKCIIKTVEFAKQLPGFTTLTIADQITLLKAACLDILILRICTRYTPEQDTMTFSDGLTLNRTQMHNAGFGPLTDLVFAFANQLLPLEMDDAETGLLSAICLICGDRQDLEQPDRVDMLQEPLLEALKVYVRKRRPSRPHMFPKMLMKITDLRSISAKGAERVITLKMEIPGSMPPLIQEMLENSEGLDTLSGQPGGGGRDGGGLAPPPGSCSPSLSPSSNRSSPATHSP
B3: ATP synthase mitochondrial F1 complex assembly factor 2 (Homo sapiens), Q8N5M1 (parent)
chain: MWRSCLRLRDGGRRLLNRPAGGPSASMSPGPTIPSPARAYAPPTERKRFYQNVSITQGEGGFEINLDHRKLKTPQAKLFTVPSEALAIAVATEWDSQQDTIKYYTMHLTTLCNTSLDNPTQRNKDQLIRAAVKFLDTDTICYRVEEPETLVELQRNEWDPIIEWAEKRYGVEISSSTSIMGPSIPAKTREVLVSHLASYNTWALQGIEFVAAQLKSMVLTLGLIDLRLTVEQAVLLSRLEEEYQIQKWGNIEWAHDYELQELRARTAAGTLFIHLCSESTTVKHKLLKE
partner: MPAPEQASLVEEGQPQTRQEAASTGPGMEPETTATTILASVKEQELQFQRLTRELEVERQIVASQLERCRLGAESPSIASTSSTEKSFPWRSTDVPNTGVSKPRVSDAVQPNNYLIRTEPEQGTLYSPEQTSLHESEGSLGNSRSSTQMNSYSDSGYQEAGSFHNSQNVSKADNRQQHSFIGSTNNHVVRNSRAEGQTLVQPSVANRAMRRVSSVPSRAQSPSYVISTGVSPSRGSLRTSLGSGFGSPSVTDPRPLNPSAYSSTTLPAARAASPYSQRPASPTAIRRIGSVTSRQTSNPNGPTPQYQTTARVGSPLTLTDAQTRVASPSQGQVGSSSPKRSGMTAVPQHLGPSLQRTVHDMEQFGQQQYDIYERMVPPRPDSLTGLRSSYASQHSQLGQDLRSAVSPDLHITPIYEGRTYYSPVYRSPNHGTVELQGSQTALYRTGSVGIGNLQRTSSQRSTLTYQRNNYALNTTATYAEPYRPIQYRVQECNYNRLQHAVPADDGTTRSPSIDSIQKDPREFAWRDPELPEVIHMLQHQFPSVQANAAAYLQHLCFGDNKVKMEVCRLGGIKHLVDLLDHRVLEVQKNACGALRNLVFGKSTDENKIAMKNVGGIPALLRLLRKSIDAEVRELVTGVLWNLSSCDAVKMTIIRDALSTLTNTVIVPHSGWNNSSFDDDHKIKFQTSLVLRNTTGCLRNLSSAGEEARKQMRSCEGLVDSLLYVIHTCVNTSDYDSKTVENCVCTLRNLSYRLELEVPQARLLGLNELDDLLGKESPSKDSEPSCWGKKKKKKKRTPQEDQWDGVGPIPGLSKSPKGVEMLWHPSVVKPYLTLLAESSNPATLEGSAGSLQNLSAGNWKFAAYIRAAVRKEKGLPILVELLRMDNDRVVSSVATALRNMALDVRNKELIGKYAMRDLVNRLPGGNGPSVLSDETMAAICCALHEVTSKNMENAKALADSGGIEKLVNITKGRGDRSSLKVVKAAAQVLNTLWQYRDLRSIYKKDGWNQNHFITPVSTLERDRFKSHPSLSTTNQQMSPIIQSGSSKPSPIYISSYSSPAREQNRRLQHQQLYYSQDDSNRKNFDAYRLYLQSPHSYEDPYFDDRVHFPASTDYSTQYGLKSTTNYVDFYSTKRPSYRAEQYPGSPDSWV
B4: Emerin (Homo sapiens), P50402 (parent)
chain: MDNYADLSDTELTTLLRRYNIPHGPVVGSTRRLYEKKIFEYETQRRRLSPPSSSAASSYSFSDLNSTRGDADMYDLPKKEDALLYQSKGYNDDYYEESYFTTRTYGEPESAGPSRAVRQSVTSFPDADAFHHQVHDDDLLSSSEEECKDRERPMYGRDSAYQSITHYRPVSASRSSLDLSYYPTSSSTSFMSSSSSSSSWLTRRAIRPENRAPGAGLGQDRQVPLWGQLLLFLVFVIVLFFIYHFMQAEEGNPF
partner: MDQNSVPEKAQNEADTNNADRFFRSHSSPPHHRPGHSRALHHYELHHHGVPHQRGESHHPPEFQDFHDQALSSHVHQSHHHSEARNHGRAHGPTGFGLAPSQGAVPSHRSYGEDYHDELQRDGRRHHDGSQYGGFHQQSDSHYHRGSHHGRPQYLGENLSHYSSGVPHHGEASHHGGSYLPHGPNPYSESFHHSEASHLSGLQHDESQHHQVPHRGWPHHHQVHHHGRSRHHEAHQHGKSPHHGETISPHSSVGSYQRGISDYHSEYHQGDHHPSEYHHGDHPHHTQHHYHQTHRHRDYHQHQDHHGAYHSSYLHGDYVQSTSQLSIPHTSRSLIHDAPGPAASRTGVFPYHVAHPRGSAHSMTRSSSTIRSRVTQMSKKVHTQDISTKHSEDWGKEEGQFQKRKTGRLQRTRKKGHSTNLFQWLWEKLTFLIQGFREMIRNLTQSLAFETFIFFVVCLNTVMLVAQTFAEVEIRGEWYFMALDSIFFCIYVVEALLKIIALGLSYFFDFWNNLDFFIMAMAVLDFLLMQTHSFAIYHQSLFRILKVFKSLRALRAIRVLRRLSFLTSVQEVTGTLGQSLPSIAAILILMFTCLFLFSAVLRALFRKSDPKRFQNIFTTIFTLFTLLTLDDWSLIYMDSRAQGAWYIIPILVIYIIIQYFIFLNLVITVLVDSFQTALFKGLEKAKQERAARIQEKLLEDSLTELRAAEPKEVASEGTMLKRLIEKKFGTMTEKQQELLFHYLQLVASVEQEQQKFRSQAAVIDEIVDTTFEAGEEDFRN
B5: Chorion-specific transcription factor GCMb (Homo sapiens), O75603 (parent)
chain: MPAAAVQEAVGVCSYGMQLSWDINDPQMPQELALFDQFREWPDGYVRFIYSSDEKKAQRHLSGWAMRNTNNHNGHILKKSCLGVVVCTQACTLPDGSRLQLRPAICDKARLKQQKKACPNCHSALELIPCRGHSGYPVTNFWRLDGNAIFFQAKGVHDHPRPESKSETEARRSAIKRQMASFYQPQKKRIRESEAEENQDSSGHFSNIPPLENPEDFDIVTETSFPIPGQPCPSFPKSDVYKATCDLATFQGDKMPPFQKYSSPRIYLPRPPCSYELANPGYTNSSPYPTLYKDSTSIPNDTDWVHLNTLQCNVNSYSSYERSFDFTNKQHGWKPALGKPSLVERTNHGQFQAMATRPYYNPELPCRYLTTPPPGAPALQTVITTTTKVSYQAYQPPAMKYSDSVREVKSLSSCNYAPEDTGMSVYPEPWGPPVTVTRAASPSGPPPMKIAGDCRAIRPTVAIPHEPVSSRTDEAETWDVCLSGLGSAVSYSDRVGPFFTYNNEDF
partner: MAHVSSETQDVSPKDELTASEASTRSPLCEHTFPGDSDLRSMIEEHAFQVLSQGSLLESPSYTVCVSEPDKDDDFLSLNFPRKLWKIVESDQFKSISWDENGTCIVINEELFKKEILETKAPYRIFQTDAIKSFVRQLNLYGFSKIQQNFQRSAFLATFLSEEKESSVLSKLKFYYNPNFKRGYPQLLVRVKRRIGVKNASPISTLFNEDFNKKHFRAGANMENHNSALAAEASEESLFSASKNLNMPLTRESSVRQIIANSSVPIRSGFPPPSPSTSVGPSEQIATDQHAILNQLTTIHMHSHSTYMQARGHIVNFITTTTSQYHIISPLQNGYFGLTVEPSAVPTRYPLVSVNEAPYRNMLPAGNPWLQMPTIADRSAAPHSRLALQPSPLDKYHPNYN

Variants of: B1
Conditions: with mkrn3_human MKRN3, Q13064

effect of a mutation on the interaction	Variant
with no effect	L107V

Variants of: B2
Conditions: with RARA

effect of a mutation on the interaction	Variant
with no effect	G14S

Variants of: B3
Conditions: with PKP4, Q99569-2

effect of a mutation on the interaction	Variant
disrupting interaction strength	W94R

Variants of: B4
Conditions: with ctsr1_human CATSPER1, Q8NEC5

effect of a mutation on the interaction	Variant
with no effect	S54F
with no effect	D72V
with no effect	P183T
with no effect	P183H

Variants of: B5
Conditions: with hsfy1_human HSFY1, Q96LI6

effect of a mutation on the interaction	Variant
disrupting interaction strength	G63S
with no effect	G203S
disrupting interaction strength	R47L
